Experimental data from patent US6897196B1, “pH sensitive lipids based on ortho ester linkers, composition and method” (The Regents of the University of California, priority 2001, dated 2005).

Experiments:
[1] = Critical Micelle Concentration of POD dispersion; assay type: physicochemical; conditions: 150 mM Tris/CL buffer pH 9.0
Experimental: In one example 10 μmoles of methoxypolyethylene glycol 2000-diortho ester-distearoyl glycerol conjugate was dried from a chloroform solution unto the sides of a glass vessel. […] Under these conditions the POD has a Critical Micelle Concentration (CMC) of about 10 μM and micelles will be formed. An aliquot of 0.05 mL of the POD micelles is added to 1 mL of a 10 mM (total lipid) liposome suspension consisting of DSPC:Chol in the mole ratio of 55:40 in a 0.14 M NaCl-10 mM Tris, pH 8.0 buffer. The mixture is incubated at 37° C. for 2 hours. After this time the POD is incorporated into the liposome and the liposome can be injected into an animal.

[2] = Acid sensitivity of POD as monitored by thin layer chromatography; assay type: physicochemical; conditions: for degradation of POD (disappearance of the compound spot at Rf~0.4): within one hour
Experimental: Conical polystyrene microcentrifuge tubes (0.5 mL) containing 20 μL 100 mM sodium phosphate buffer of different pH were pre-warmed at 37° C. for 30 min and silica gel TLC plates (WhatmanCE from Whatman Ltd, Maidstoned, Kent, England) were pre-equilibrated with the solvent system (CHCl3/MeOH/NH4OH=100:15:1) by running the plates without samples followed by brief air-drying. Eight milligrams of POD was dissolved into 100 μL water by vortexing and 20 μL of the solution was added into each of the pre-warmed tubes and mixed thoroughly. The tubes were incubated at 37° C. and 10 μL of the solutions were aliquoted at different time points and mixed with 10 μL of 10% concentrated NH4OH (30% w/w) in acetone to stop the hydrolysis. Five microliters of the mixture was spotted onto pre-equilibrated TLC plates. Three microliters of distearoyl glycerol, monomethyl ether of PEG2000 and POD in 10 mg1 mL CHCl3 solution were also spotted as standards. TLC plates were developed, heated at 150° C. for 5 min and stained in I2 chamber for 1 h to observe the locations of POD and its degradation products.

Substance: 3,9-Diethyl-3-(2,3-distearoyloxypropyloxy)-9-(methoxypolyethyleneglycol2000-1-yl)-2,4,8,10-tetraoxaspiro[5,5]undecane [POD]
- Critical Micelle Concentration (CMC) [1]: about 10 μM
- degradation of POD ([2]; buffer of neutral pH 7.4, 37° C., over 3 hours): most of the conjugate remained intact
- approximate half-life of POD degradation ([2]; buffer of pH 6, 37° C.): ~2.5 h
- degradation of POD (disappearance of the compound spot at Rf~0.4) ([2]; buffer pH 4, 37° C.): completely degraded
- degradation of POD (disappearance of the compound spot at Rf~0.4) ([2]; buffer pH 5, 37° C.): completely degraded
